± gives the uncertainty stated by the source.
assay: amyloid nucleation score (Sup35N fusion, yeast selection) (log enrichment); library NNK1; higher = more nucleation; inactive = no reads after selection
Summary of the method: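 In psi-negative yeast, Sup35N fusions carrying peptides of 20 random codons were induced with 100 μM copper sulfate for 24 hours. The cells then grew 7 days at 30°C on medium lacking adenine and uracil, and plasmid inserts from input and output were Illumina-sequenced, excluding sequences with under 100 input reads. Nucleation score is the DiMSum log enrichment of output over input reads, centred on the mode score of non-aggregating sequences.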

**Q.** With FRSGTHWSMDFGHAKEIRR as the substance, how does the amyloid nucleation score read?
**A.** 1.39 ± 0.14

**Q.** For KLLIP, which amyloid nucleation score is on record?
**A.** -1.17 ± 0.58

**Q.** For KFRMCEFSGAYTYGVFKNLP, which amyloid nucleation score is on record?
**A.** 0.834 ± 0.26

**Q.** For MCRVHFRNVTFCGALARSVL, which amyloid nucleation score is on record?
**A.** -0.751 ± 0.43

**Q.** Which amyloid nucleation score does the source give for TQEKMSVGYYASNSLFWSML here?
**A.** 0.36 ± 1.2

**Q.** For YYTNWQEGYRVGRFRCDGHN, which amyloid nucleation score is on record?
**A.** inactive

**Q.** With CLSDGTMAFPCPGRQDVRTV as the substance, how does the amyloid nucleation score read?
**A.** -0.015 ± 0.34

**Q.** Which amyloid nucleation score does the source give for PALWWSMYSIQCPEEIGGAV here?
**A.** 0.405 ± 0.55

**Q.** Which amyloid nucleation score does the source give for VHSCYLVLARQWNVIKISHI here?
**A.** 0.039 ± 0.43

**Q.** For ACYGLIDQLFQLANPYRTAM, which amyloid nucleation score is on record?
**A.** 0.412 ± 0.32

**Q.** For WYAFERFDFHLCVDVVQLTR, which amyloid nucleation score is on record?
**A.** 1.11 ± 0.94

**Q.** With SSTLLRMIEVRNGWEKGVWE as the substance, how does the amyloid nucleation score read?
**A.** 0.083 ± 0.2

**Q.** With TWRCQLIYTCGNVSRKPVLL as the substance, how does the amyloid nucleation score read?
**A.** -0.148 ± 0.5

**Q.** For IIEIRLNLGAVANLSTYGVM, which amyloid nucleation score is on record?
**A.** 0.327 ± 0.39

**Q.** For CAFCI, which amyloid nucleation score is on record?
**A.** -0.766 ± 1

**Q.** With FWCMALK as the substance, how does the amyloid nucleation score read?
**A.** -1.05 ± 2.4

**Q.** Which amyloid nucleation score does the source give for HLYGVR here?
**A.** 0.267 ± 0.84

**Q.** For VFYFELKG, which amyloid nucleation score is on record?
**A.** -0.183 ± 0.28

**Q.** Which amyloid nucleation score does the source give for FYYYSSCHYWYC here?
**A.** -0.13 ± 0.79

**Q.** With RKFAFKSIWSWYRI as the substance, how does the amyloid nucleation score read?
**A.** 0.533 ± 0.54

**Q.** Which amyloid nucleation score does the source give for MVHWVILYAADFPIETLNK here?
**A.** inactive

**Q.** Which amyloid nucleation score does the source give for LSDWYNLRRWRTVTWAQQLH here?
**A.** -0.4 ± 1.3

**Q.** With RERESQMYFNLFSENTY as the substance, how does the amyloid nucleation score read?
**A.** -0.435 ± 0.51

**Q.** Which amyloid nucleation score does the source give for LLNDSINNPQCFIVSSSGHL here?
**A.** -0.541 ± 0.39

**Q.** With LGQHRKPSYKHSAKHKLFVD as the substance, how does the amyloid nucleation score read?
**A.** 0.519 ± 0.36

**Q.** For RHVDRLVLWHEDSVAPGETN, which amyloid nucleation score is on record?
**A.** 0.394 ± 0.49

**Q.** Which amyloid nucleation score does the source give for YTGSL here?
**A.** -0.498 ± 0.63

**Q.** With TDFMVGCVNMRRSESVWYC as the substance, how does the amyloid nucleation score read?
**A.** 0.767 ± 0.39

**Q.** With GNCWYV as the substance, how does the amyloid nucleation score read?
**A.** -0.16 ± 0.31

**Q.** With VGVMFG as the substance, how does the amyloid nucleation score read?
**A.** -0.06 ± 0.69

**Q.** With GVPDFA as the substance, how does the amyloid nucleation score read?
**A.** 0.685 ± 0.7

**Q.** For QKSVWKSITGRASFYSSLVR, which amyloid nucleation score is on record?
**A.** inactive

**Q.** For CDNSLDSIWFVSVSWN, which amyloid nucleation score is on record?
**A.** 1.16 ± 0.69

**Q.** Which amyloid nucleation score does the source give for HMSDNGLSSMKRVYVVYPTT here?
**A.** -0.049 ± 0.23

**Q.** For MDLHTACVYSKVGMTLDQPS, which amyloid nucleation score is on record?
**A.** 0.343 ± 0.39

**Q.** For PITMQSMSFFRRVLLVFFLY, which amyloid nucleation score is on record?
**A.** 0.813 ± 0.5

**Q.** For HLNLIVTRFASIWVAAFMCR, which amyloid nucleation score is on record?
**A.** -0.282 ± 0.77

**Q.** For DVLLCSIRTSSHDMIIMRKR, which amyloid nucleation score is on record?
**A.** 0.553 ± 0.65

**Q.** For VCLVFVFDVSTVPNICCYAT, which amyloid nucleation score is on record?
**A.** -0.189 ± 0.37

**Q.** Which amyloid nucleation score does the source give for DEWSNKHCSQNTALCSLWAT here?
**A.** 1.43 ± 0.2

**Q.** With VYHVTWRLPF as the substance, how does the amyloid nucleation score read?
**A.** 3.4 ± 0.12

**Q.** For RIGTFGNDNSMFRSDVLSVS, which amyloid nucleation score is on record?
**A.** 0.579 ± 0.35

**Q.** With ASMPAFAT as the substance, how does the amyloid nucleation score read?
**A.** 0.413 ± 0.72

**Q.** With MVRGQVNPNSFNARWY as the substance, how does the amyloid nucleation score read?
**A.** inactive

**Q.** With HRCQSSSRRPMNGFGTCQRS as the substance, how does the amyloid nucleation score read?
**A.** 0.321 ± 0.34

**Q.** Which amyloid nucleation score does the source give for RMHRTDWASIHKDGRPQRRF here?
**A.** 1.23 ± 0.76

**Q.** With NYFAIPCFESWSWRMYKVGF as the substance, how does the amyloid nucleation score read?
**A.** 0.186 ± 0.9

**Q.** For NDWRCSKGLLGFWRGGTRQA, which amyloid nucleation score is on record?
**A.** 0.48 ± 0.28

**Q.** For GLSGPRRQMSYMGWQRVRF, which amyloid nucleation score is on record?
**A.** -0.247 ± 1.1

**Q.** With RINLVDLMWMRHWRMGNI as the substance, how does the amyloid nucleation score read?
**A.** 1.41 ± 0.29

**Q.** For GYLSGSMSDETGTPDMCTRG, which amyloid nucleation score is on record?
**A.** 0.353 ± 0.51

**Q.** With WQHFLFCKKKRVESCNVSTN as the substance, how does the amyloid nucleation score read?
**A.** 1.02 ± 0.76

**Q.** For HWCLMGLCKLFSSARPPLKK, which amyloid nucleation score is on record?
**A.** 0.085 ± 0.8

**Q.** Which amyloid nucleation score does the source give for FSFDLLSVESGITNV here?
**A.** -0.054 ± 0.82

**Q.** For MNMVCS, which amyloid nucleation score is on record?
**A.** 1.15 ± 0.58

**Q.** With CTRHMHTSRKFQALLSWCVT as the substance, how does the amyloid nucleation score read?
**A.** -0.316 ± 0.47

**Q.** For SWFYYAKC, which amyloid nucleation score is on record?
**A.** 0.05 ± 0.76

**Q.** Which amyloid nucleation score does the source give for PLVNVYSSAYYSRHLKGLCV here?
**A.** -0.782 ± 0.69

**Q.** With VRSFLPMYMF as the substance, how does the amyloid nucleation score read?
**A.** -0.376 ± 1.7

**Q.** Which amyloid nucleation score does the source give for VITVSGSEGEIEWSS here?
**A.** -1.64 ± 2.7

**Q.** Which amyloid nucleation score does the source give for VCKFNYL here?
**A.** -0.769 ± 1.1

**Q.** For NWRSTLVSCLVYLPVLCCRC, which amyloid nucleation score is on record?
**A.** 5.31 ± 0.058

**Q.** Which amyloid nucleation score does the source give for RVIGE here?
**A.** 1.36 ± 0.49

**Q.** Which amyloid nucleation score does the source give for GMRVMRYYLPRGNQKFGESR here?
**A.** 0.823 ± 0.63

**Q.** Which amyloid nucleation score does the source give for SSRLVSFFGHSNTVLRMFNW here?
**A.** inactive

**Q.** Which amyloid nucleation score does the source give for EIMFDWVMMEKKCRILHKKT here?
**A.** inactive

**Q.** Which amyloid nucleation score does the source give for EFEWNLFPICNTNMI here?
**A.** 1.66 ± 0.8

**Q.** Which amyloid nucleation score does the source give for TCPWWTVIVFTSESMP here?
**A.** inactive

**Q.** For YLSFSSAHDDIEWVGISCR, which amyloid nucleation score is on record?
**A.** inactive

**Q.** For LQLIGYRDNWSGVMFYLERG, which amyloid nucleation score is on record?
**A.** 0.838 ± 0.55

**Q.** Which amyloid nucleation score does the source give for YLGWDRNRDYEWAIDASRAN here?
**A.** inactive

**Q.** With HVFSQ as the substance, how does the amyloid nucleation score read?
**A.** -0.756 ± 2.4

**Q.** Which amyloid nucleation score does the source give for VSSVGVDMMYLTTRGGCHSI here?
**A.** inactive

**Q.** With FVTMAVWGLYTCFKVHKGIV as the substance, how does the amyloid nucleation score read?
**A.** -0.4 ± 0.78

**Q.** For DTLLKF, which amyloid nucleation score is on record?
**A.** 0.916 ± 0.74

**Q.** Which amyloid nucleation score does the source give for LAPNDGGRALSVDMRGWCDW here?
**A.** inactive

**Q.** With SLSCTTLCLEYYRYCVRTYG as the substance, how does the amyloid nucleation score read?
**A.** 0.196 ± 0.7

**Q.** Which amyloid nucleation score does the source give for RSFPSTFLLVLLQDSRC here?
**A.** 2.17 ± 0.24

**Q.** Which amyloid nucleation score does the source give for VCITNNELVGVFDDEVFIAF here?
**A.** inactive

**Q.** For SGYMWMFMSHRNEFRTEVRW, which amyloid nucleation score is on record?
**A.** 0.385 ± 0.37

**Q.** With ASLAIGFSIKSHYVMCRVYP as the substance, how does the amyloid nucleation score read?
**A.** 0.42 ± 0.35

**Q.** For FSFVSECGLAGFYPRE, which amyloid nucleation score is on record?
**A.** 0.35 ± 0.55

**Q.** Which amyloid nucleation score does the source give for TFAVLRNSGFM here?
**A.** 0.529 ± 0.84

**Q.** For NFRLCLWSDAGLIGKAVFGY, which amyloid nucleation score is on record?
**A.** 0.718 ± 0.39

**Q.** For WRQYIDRNYVSCSASMLAWE, which amyloid nucleation score is on record?
**A.** 0.583 ± 0.43

**Q.** For ISGNRSKVWNDGWIRPRYLC, which amyloid nucleation score is on record?
**A.** 0.679 ± 0.84

From the supplement of paper PMC12042874
